From patent US20260232820A1 (MEDICENNA THERAPEUTICS, published 2026)

T1: IL-13Rα2 on human A375 and U87 cells (human, UniProt Q14627 27-380)
T1 sequence (looked up): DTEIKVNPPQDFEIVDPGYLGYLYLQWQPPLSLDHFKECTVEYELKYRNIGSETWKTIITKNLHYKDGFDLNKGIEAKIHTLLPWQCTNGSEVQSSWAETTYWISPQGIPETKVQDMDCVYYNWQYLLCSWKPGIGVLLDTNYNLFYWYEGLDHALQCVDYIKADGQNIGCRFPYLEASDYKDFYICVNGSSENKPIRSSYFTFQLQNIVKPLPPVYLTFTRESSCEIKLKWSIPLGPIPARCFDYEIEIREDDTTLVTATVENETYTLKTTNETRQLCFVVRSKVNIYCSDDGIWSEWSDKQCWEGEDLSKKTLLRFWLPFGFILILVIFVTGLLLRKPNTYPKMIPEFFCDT


What was measured:
[1] = target: T1, IL-13Rα2 on human A375 and U87 cells; experiment: cell-based or functional assay
[2] = target: IL-13Rα2 on engineered EMT6 cells (EMT6-IL13Rα2); experiment: cell-based or functional assay
[3] = target: T1, IL-13Rα2 on human A375 and U87 cells; experiment: cell-based or functional assay; remark: listed apart in the source
[4] = target: IL-13Rα2 on engineered EMT6 cells (EMT6-IL13Rα2); experiment: cell-based or functional assay; remark: listed apart in the source
[5] = target: T2, Fc-IL13 (1:1 KIH) (human, UniProt P35225 34-146); experiment: SPR
T2 construct: also called Fc-IL13 KIH
Procedure: Receptor binding was assessed using surface plasmon resonance (SPR) in which test constructs (i.e., Fc-MDNA132) were bound onto SPR chip surface and receptors (i.e., IL-13Rα1 and IL-13Rα2) were used as flow analytes (data not shown).
Representative SPR sensorgrams of Fc-MDNA132 and Fc-51.13 binding to […] and IL-13Rα2 is shown in (data not shown) and KD values are tabulated in Table 12. Variants contain the 5 core mutations of MDNA132 and an added mutation at amino acid position indicated in the name of the constructs.

Binder | IC50 (pM), cytotoxicity assay, A375 cells, 48 h incubation [1] | IC50 (pM), cytotoxicity assay, U87 cells, 48 h incubation [1] | IC50 (pM), cytotoxicity assay, EMT6-IL13Rα2 cells, 48 h incubation [2] | IC50 (pM), cytotoxicity assay, A375 cells, 72 h incubation [3] | IC50 (pM), cytotoxicity assay, U87 cells, 72 h incubation [3] | IC50 (pM), cytotoxicity assay, EMT6-IL13Rα2 cells, 72 h incubation [4] | Kd [5]
cpMDNA132.15-PE (other) MTAGMYCAALESLINVSGCSAIEKTQRMLSGFCPHKVSAGQFSSLHVTGRKIEVAQFVKDLLLHLKKLFKEGQFNGGNGGPGPVPPSTAHRELIRELVNITQNQKAPLCNGSMVWSINLASGGPEGGSLAALTAHQACHLPLETFTRHRQPRGWEQLEQCGYPVQRLVALYLAARLSWNQVDQVIRNALASPGSGGDLGEAIREQPEQARLALTLAAAESERFVRQGTGNDEAGAANGPADSGDALLERNYPTGAEFLGDGGDVSFSTRGTQNWTVERLLQAHRQLEERGYVFVGYHGTFLEAAQSIVFGGVRARSQDLDAIWRGFYIAGDPALAYGYAQDQEPDARGRIRNGALLRVYVPRSSLPGFYRTSLTLAAPEAAGEVERLIGHPLPLRLDAITGPEEEGGRLETILGWPLAERTVVIPSAIPTDPRNVGGDLDPSSIPDKEQAISALPDYASQPGKPPKDEL | 1.5 pM | 4.2 pM | 1 pM | 1.3 pM | 7.6 pM | 1 pM | 
MDNA132.15-PE (other) GPGPVPPSTAHRELIRELVNITQNQKAPLCNGSMVWSINLTAGMYCAALESLINVSGCSAIEKTQRMLSGFCPHKVSAGQFSSLHVTGRKIEVAQFVKDLLLHLKKLFKEGQFNASGGPEGGSLAALTAHQACHLPLETFTRHRQPRGWEQLEQCGYPVQRLVALYLAARLSWNQVDQVIRNALASPGSGGDLGEAIREQPEQARLALTLAAAESERFVRQGTGNDEAGAANGPADSGDALLERNYPTGAEFLGDGGDVSFSTRGTQNWTVERLLQAHRQLEERGYVFVGYHGTFLEAAQSIVFGGVRARSQDLDAIWRGFYIAGDPALAYGYAQDQEPDARGRIRNGALLRVYVPRSSLPGFYRTSLTLAAPEAAGEVERLIGHPLPLRLDAITGPEEEGGRLETILGWPLAERTVVIPSAIPTDPRNVGGDLDPSSIPDKEQAISALPDYASQPGKPPKDEL | 1.02 pM | 11.4 pM | 2.1 pM | 1.1 pM | 208 pM | 1.13 pM | 
human IL-13Rα1 (receptor, UniProt P78552 22-343, looked up, also called IL-13αR1) GGGGAAPTETQPPVTNLSVSVENLCTVIWTWNPPEGASSNCSLWYFSHFGDKQDKKIAPETRRSIEVPLNERICLQVGSQCSTNESEKPSILVEKCISPPEGDPESAVTELQCIWHNLSYMKCSWLPGRNTSPDTNYTLYYWHRSLEKIHQCENIFREGQYFGCSFDLTKVKDSSFEQHSVQIMVKDNAGKIKPSFNIVPLTSRVKPDPPHIKNLSFHNDDLYVQWENPQNFISRCLFYEVEVNNSQTETHNVFYVQEAKCENPEFERNVENTSCFMVPGVLPDTLNTVRIRVKTNKLCYEDDKLWSNWSQEMSIGKKRNST |  |  |  |  |  |  | 0.47 µM
human IL-13Rα2 (receptor, UniProt Q14627 27-343, looked up, also called IL-13Ra2; human IL-13 decoy receptor) DTEIKVNPPQDFEIVDPGYLGYLYLQWQPPLSLDHFKECTVEYELKYRNIGSETWKTIITKNLHYKDGFDLNKGIEAKIHTLLPWQCTNGSEVQSSWAETTYWISPQGIPETKVQDMDCVYYNWQYLLCSWKPGIGVLLDTNYNLFYWYEGLDHALQCVDYIKADGQNIGCRFPYLEASDYKDFYICVNGSSENKPIRSSYFTFQLQNIVKPLPPVYLTFTRESSCEIKLKWSIPLGPIPARCFDYEIEIREDDTTLVTATVENETYTLKTTNETRQLCFVVRSKVNIYCSDDGIWSEWSDKQCWEGEDLSKKTLLR |  |  |  |  |  |  | 0.00015 µM
